Test system: Klebsiella pneumoniae strain 3K25
Assay: Example 3: experimental infection in mice, cefaclor with or without hololactoferrin
Format: in vivo, strain ICR
Conditions: hololactoferrin alone 0.4 mg/mouse p.o.
Protocol: For ED50 values, a range of amounts of antibiotics is given in the examples (e.g., penicillin G: 0.4, 0.2, 0.1, 0.05 mg/mouse). To calculate the ED50, groups of mice in the monotherapy groups and groups of mice in the combined therapy groups received the indicated amount of antibiotic (e.g., one group received 0.4 mg/mouse of penicillin G, one group received 0.2 mg/mouse of penicillin G, one group received 0.1 mg/mouse of penicillin G, one group received 0.05 mg/mouse of penicillin G).
Sixty male mice, strain ICR, five weeks of age, weighing 21.3±1.5 g (mean±the standard deviation) were randomly allocated into ten groups (n=6), and intraperitoneally injected with Klebsiella pneumoniae strain 3K25, 1×10^6 CFU/mouse. One hour after the injection, the first group was orally given 0.2 ml of physiological saline, the second group orally given hololactoferrin (100% ferric ion saturated lactoferrin, 0.4 mg/mouse), the third through the sixth groups orally given cefaclor (2.0, 1.0, 0.5 and 0.25 mg/mouse each) in 0.2 ml of saline, and the seventh through the tenth groups orally given cefaclor (2.0, 1.0, 0.5 and 0.25 mg/mouse each) and hololactoferrin (100% iron saturated lactoferrin, 0.4 mg/mouse) in 0.2 ml of saline. The mice were fed ad libitum and observed for one week under the same conditions as described in Example 1.

B1: hololactoferrin: 100% ferric ion saturated lactoferrin (protein, UniProt P24627 20-708, looked up)
Lactotransferrin: APRKNVRWCTISQPEWFKCRRWQWRMKKLGAPSITCVRRAFALECIRAIAEKKADAVTLDGGMVFEAGRDPYKLRPVAAEIYGTKESPQTHYYAVAVVKKGSNFQLDQLQGRKSCHTGLGRSAGWIIPMGILRPYLSWTESLEPLQGAVAKFFSASCVPCIDRQAYPNLCQLCKGEGENQCACSSREPYFGYSGAFKCLQDGAGDVAFVKETTVFENLPEKADRDQYELLCLNNSRAPVDAFKECHLAQVPSHAVVARSVDGKEDLIWKLLSKAQEKFGKNKSRSFQLFGSPPGQRDLLFKDSALGFLRIPSKVDSALYLGSRYLTTLKNLRETAEEVKARYTRVVWCAVGPEEQKKCQQWSQQSGQNVTCATASTTDDCIVLVLKGEADALNLDGGYIYTAGKCGLVPVLAENRKSSKHSSLDCVLRPTEGYLAVAVVKKANEGLTWNSLKDKKSCHTAVDRTAGWNIPMGLIVNQTGSCAFDEFFSQSCAPGADPKSRLCALCAGDDQGLDKCVPNSKEKYYGYTGAFRCLAEDVGDVAFVKNDTVWENTNGESTADWAKNLNREDFRLLCLDGTRKPVTEAQSCHLAVAPNHAVVSRSDRAAHVKQVLLHQQALFGKNGKNCPDKFCLFKSETKNLLFNDNTECLAKLGGRPTYEEYLGTEYVTAIANLKKCSTSPLLEACAFLTR
modifications: 100% ferric iron saturated
notes: 100% ferric ion saturated lactoferrin
mortality within 24 hours: died within 24 hours

Reference: patent US5198419A, “Formulated medicines for enhancing the efficacy of beta-lactam antibiotics in prophylaxis and treatment against infectious disease due to pathogenic bacteria” (Immuno Japan Inc., priority 1989, dated 1993)
